# From the DeepSol protein solubility set
# Test: soluble on expression in E. coli; label from the status in PepcDB or PDB records
row,Sequence,soluble on expression in E. coli
1,SMKINFLRNKHKIHVQGTDLPDPIATFQQLDQEYKINSRLLQNILDAGFQMPTPIQMQAIPVMLHGRELLASAPTGSGKTLAFSIPILMQLKQPANKGFRALIISPTRELASQIHRELIKISEGTGFRIHMIHKAAVAAKKFGPKSSKKFDILVTTPNRLIYLLKQDPPGIDLASVEWLVVDESDKLFEDGKTGFRDQLASIFLACTSHKVRRAMFSATFAYDVEQWCKLNLDNVISVSIGARNS,soluble
2,SMLSTEGREGFVVKVRGLPWSCSAEEVMRFFSDCKIQNGTSGVRFIYTREGRPSGEAFVELESEDEVKLALKKDRETMGHRYVEVFKSNSVEMDWVLKHTGPNSPDTANDGFVRLRGLPFGCSKEEIVQFFSGLEIVPNGMTLPVDFQGRSTGEAFVQFASQEIAEKALKKHKERIGHRYIEIFKSSRAEVRTHYDPPRKLMTMQRPGPYDRPGAGRGYNSIGRGAGFERMRRGAYGGGYGGYDDYGGYNDGYGFGSDRFGRDLNYCFSGMSDHRYGDGGSSFQSTTGHCVHMRGLPYRATENDIYNFFSPLNPMRVHIEIGPDGRVTGEADVEFATHEDAVAAMAKDKANMQHRYVELFLNSTAGTSGGAYDHSYVELFLNSTAGASGGAYGSQMMGGMGLSNQSSYGGPASQQLSGGYGGGYGGQSSMSGYDQVLQENSSDYQSNLA,not soluble
3,SMQQLVLDPGFLGLEPLLDLLLGVHQELGASELAQDKYVADFLQWAEPIVVRLKEVRLQRDDFEILKVIGRGAFSEVAVVKMKQTGQVYAMKIMNKWDMLKRGEVSCFREERDVLVNGDRRWITQLHFAFQDENYLYLVMEYYVGGDLLTLLSKFGERIPAEMARFYLAEIVMAIDSVHRLGYVHRDIKPDNILLDRCGHIRLADFGSCLKLRADGTVRSLVAVGTPDYLSPEILQAVGGGPGTGSYGPECDWWALGVFAYEMFYGQTPFYADSTAETYGKIVHYKEHLSLPLVDEGVPEEARDFIQRLLCPPETRLGRGGAGDFRTHPFFFGLDWDGLRDSVPPFTPDFEGATDTCNFDLVEDGLTAMVSGGGETLSDIREGAPLGVHLPFVGYSYSCMALRDSEVPGPTP,soluble
4,SMYKVRDISLAEWGRRELELAENEMPGLMELRREYGPSKPLKGAKIAGCLHMTMQTAVLIETLVELGAEVRWASCNIFSTQDHAAAAIAKRGIPVFAWKGETEEEYMWCMKQTLKGFSGDGYPNMLLDDGGDLTNYVLDECKELDGKIYGVSEETTTGVKNLYKRLQRGKLTIPAMNVNDSVTKSKFDNLYGCRESLVDGIKRATDVMIAGKTACVCGYGDVGKGCAAALRGFGARVVVTEVDPINALQAAMEGYQVLLVEDVVEEAHIFVTTTGNDDIITSEHFPRMRDDAIVCNIGHFDTEIQVAWLKANAKERVEVKPQVDRYTMANGRHIILLAEGRLVNLGCASGHPSFVMSNSFCNQVLAQIELWTNRDTGKYPRGAKAQVYFLPKKLDEKVAALHLGKLGAKLTKLTPKQAEYINCPVDGPFKPDHYRY,soluble
5,SNAKSAVTAQSILEKADEIRFPQDSFQVNVAIRTAAPDHAEDLYRYQVLSKGNENSIVMITEPASERGQAILMKGRDLWVFMPSVSQPIRLSLSQRLTGQVANGDIARANFTGDYHPQLLRNESIDDEDYYVLELTGIDRSVTYQKVLLWVNQSNFRPYKAEFYSVSGRLLKTSRYENFDNILGEMRPTRIIMEDALKSGEVSVLDYSDMKLRDLPDKIFTKDYLKRLE,soluble
6,SNAKVILYARVSSNTQKDDLANQVKYLEEQVKEYDLVITDIGSGLNMKRKGFLKLLRMILNNEVSRVITAYPDRLVRFGFEILEEVCKAHNCEIVVLNQEDKTPEEELVEDLATILVSFSGKLHGMRSQKYEKVKKCAEELKN,soluble
7,SNAMKFELPKLPYAVDALESTISKETIEYHYGKHHQTYVTNLNNLVEGTEHDGRNLEEIVKTSNGGIFNNAAQVFNHTFYWNCLTPNKTEASSQLKAALIETFGSVENFKEQFSKAAIATFGSGWAWLVKNTEGKLEIVTTSNAGCPLTENKKPLLTFDVWEHAYYIDYRNARPKYVEALWDIVNWQFVSEQFAD,soluble
8,SNAMNQTLLSDFGTPVERVERAIDALRNGRGVMVLDDESRENEGDMVFAAEAMTLEQMALTIRHGSGIVCLCITDERRQQLDLPMMVTHNSSQFQTAFTVTIEAAEGVTTGVSAADRLTTIRKAIADNAKPADLNRPGHVFPLRGQPGGVLSRRGHTEASIDLATLAGYKPAGVLCELTNDDGSMAHAPEVIAFAKLHDMPVVTIDDLAAYLQSRAKKAS,soluble
9,SNAMQNRWAETKFDSDIDEVVYGSRLIGSDPDLVLHGGGNTSVKTTERDHAGRIISVLRVKNSGSNLGTIDSRGFTGIRMDDALAAAKIDKMTDEAMVDYLKKSMVNPSEPSPSVETFLHAFLPYKFVMHSHADAILSITNTDLPSDQIAKILGNVVVLPYIPPGFTLAKEVMNCFKKGIDGIVLRKHGLLTFGDTGKEAYDRHINIVSRAENFIREKTDGK,soluble
10,SNAMSRAKKWVQYFLSHRHVTMELIHKIDEAHYDYKPTPTSMTAKQLATHMLFSFYNFANTAKHGDPSLFRQKIEEPETNLAKLAETYTEKTRQLIESMSDDDFDRTLDLTAIFGTQMSTAQFLQLAMDHEIHHKGQLFVYVRGMGHTDLPLFVKRG,soluble
11,SNAMSVQTIERLQDYLLPEWVSIFDIADFSGRMLRIRGDIRPALLRLASRLAELLNESPGPRPWYPHVASHMRRRVNPPPETWLALGPEKRGYKSYAHSGVFIGGRGLSVRFILKDEAIEERKNLGRWMSRSGPAFEQWKKKVGDLRDFGPVHDDPMADPPKVEWDPRVFGERLGSLKSASLDIGFRVTFDTSLAGIVKTIRTFDLLYAEAEKGS,soluble
12,SNAMTMKVGFIGLGIMGKPMSKNLLKAGYSLVVSDRNPEAIADVIAAGAETASTAKAIAEQCDVIITMLPNSPHVKEVALGENGIIEGAKPGTVLIDMSSIAPLASREISDALKAKGVEMLDAPVSGGEPKAIDGTLSVMVGGDKAIFDKYYDLMKAMAGSVVHTGDIGAGNVTKLANQVIVALNIAAMSEALTLATKAGVNPDLVYQAIRGGLAGSTVLDAKAPMVMDRNFKPGFRIDLHIKDLANALDTSHGVGAQLPLTAAVMEMMQALRADGHGNDDHSALACYYEKLAKVEVTR,soluble
13,SNASYRSTQQITDFTKEILVNGEAVTAFDRQGDLPNVVVTPNFEAGVDQVVDQLAMNDSERDTTAIIGKSLAECEALTKALKARGEQVTLIQTENQRLAPGVIVVPSFLAKGLEFDAVIVWNANQENYQREDERQLLYTICSRAMHELTLVAVGSLSPLLARVNHALYTLNEAK,soluble
14,SNAYTDESGLSELVNAAGEKLQDLELMGQKNAVRDFFKELIADSGKVAYGESQVRANLEINSVDVLLLSEDLRAERVTTKCSVCGYENKWTRRWKPGEPAPAAGNCPKCGSSLEVTDVTDIVDEFSELADKSNAKVVFVSTDFDEGSQLMNAFGGIAAILRYNTGV,soluble
15,SNCRSEVLEVSVEGRQVEEAMLAVLHTVLLHRSTGKFHYKKEGTYSIGTVGIQDVDCDFIDFTYVRVSSEELDRALRKVVGEFKDALRNSGGDGLGQMSLEFYQKKKSRWPFSDECIPWEVWTVKVHVVALATEQERQICREKVGEKLCEKIINIVEVMSRHEYLPKMPTQSEVDNVFDTGLRDVQPYLYKISFQITEALGTSVTTTMRRLIKDTLAL,soluble
16,SNDYRVAVFGAGGVGKSSLVLRFVKGTFRESYIPTVEDTYRQVISCDKSICTLQITDTTGSHQFPAMQRLSISKGHAFILVYSITSRQSLEELKPIYEQICEIKGDVESIPIMLVGNKCDESPSREVQSSEAEALARTWKCAFMETSAKLNHNVKELFQELLNLEKRRTVSL,soluble
17,SNEFFPVDDNNEGTDADMKEDSEGPEPKGLSPPHKKSKAKKPESSKDSSEDESGPEEKQTAEEMEGQSQEADGVNTTPVPSPASEDKAEVHKDEADSAKDDNTVKDSDMTNHSVCDQELPNGQENDSAKSEGKTEAESPSSSMETEDLSPNQEDAAIVEQPEVIPLIDDQEAQEGGEAQGKDAPAVFAESQGSSEAENTSGPDVDMNSQVDGVNEPTESLQEDLQ,not soluble
18,SNGILREVSGIASNSAFYWTNLTSKPYMGFRSGRNWSMTSGDIRTVRSQVPEVEFISPIMWGARSNKNVVFGDKSETYSIVGAEPDYFEISRVNILQGRMLNAVDDKLRRKVCMIGKEVKEKLFGTTDPIGQVLRVNGLYYRVIGVLEAKSNNVTIGSSPKRSVYLPYSVLQQISNSGNRVENFAVSAYPSADMKQMFKKTETIIRSRNQIAPDDDKALSKFDISAQFQLMNMIFTGINL,not soluble
19,SNNVLPTWSLDSNGEMRSRLSLSEVLDSGDLMKFAVDKTGCQFLEKAVKGSLTSYQKFQLFEQVIGRKDDFLKLSTNIFGNYLVQSVIGISLATNDDGYTKRQEKLKNFISSQMTDMCLDKFACRVIQSSLQNMDLSLACKLVQALPRDARLIAICVDQNANHVIQKVVAVIPLKNWEFIVDFVATPEHLRQICSDKYGCRVVQTIIEKLTADSMNVDLTSAAQNLRERALQRLMTSVTNRCQELATNEYANYIIQHIVSNDDLAVYRECIIEKCLMRNLLSLSQEKFASHVVEKAFLHAPLELLAEMMDEIFDGYIPHPDTGKDALDIMMFHQFGNYVVQCMLTICCDAVSGRRQTKEGGYDHAISFQDWLKKLHSRVTKERHRLSRFSSGKKMIETLANLRSTHPIYELQ,soluble
20,SNQEPATILLIDDHPMLRTGVKQLISMAPDITVVGEASNGEQGIELAESLDPDLILLDLNMPGMNGLETLDKLREKSLSGRIVVFSVSNHEEDVVTALKRGADGYLLKDMEPEDLLKALHQAAAGEMVLSEALTPVLAASLRANRATTERDVNQLTPRERDILKLIAQGLPNKMIARRLDITESTVKVHVKHMLKKMKLKSRVEAAVWVHQERIF,soluble
21,SNTRNFVLRDEDGNEHGVFTGKQPRQAALKAANRGSGTKANPDIIRLRERGTKKVHVFKAWKEIVDAPKNRPAWMPEKISKPFVKKERIEKLE,soluble
22,SPAPPACDLRVLSKLLRDSHVLHSRLSQCPEVHPLPTPVLLPAVDFSLGEWKTQMEETKAQDILGAVTLLLEGVMAARGQLGPTCLSSLLGQLSGQVRLLLGALQSLLGTQLPPRGRTTAHKDPNAIFLSFQHLLRGKVRFLMLVGGSTLCVRRAPPTTAVPS,soluble
23,SPEFMVKAKSWTLKKHFQGKPTQSDFELKTVELPPLKNGEVLLEALFLSVDPYMRIASKRLKEGAVMMGQQVARVVESKNSAFPAGSIVLAQSGWTTHFISDGKGLEKLLTEWPDKLPLSLALGTIGMPGLTAYFGLLEVCGVKGGETVLVSAAAGAVGSVVGQIAKLKGCKVVGAAGSDEKIAYLKQIGFDAAFNYKTVNSLEEALKKASPDGYDCYFDNVGGEFLNTVLSQMKDFGKIAICGAISVYNRMDQLPPGPSPESIIYKQLRIEGFIVYRWQGDVREKALRDLMKWVLEGKIQYHEHVTKGFENMPAAFIEMLNGANLGKAVVTA,soluble
24,SPGFSVGVIGDMFLLPNLNLRLLPTLHFGDKQFVFSDGEKPVASFSVRSNYLEFPLLLKYGSRRLNNMRPYLIGGPYWTMELGRKKGLEIYTKANDYGVQIGLGCDFYLPFFKLCPELRFSFGFPDVITHERPDLLDDYKLIYTQSISRARTRMIMLTFNFE,not soluble
